Among the data in the Human Domainome abundance scans (Beltran et al. 2025) are abundance fitness values, retold here.

± gives the uncertainty stated by the source.

Sequences and labels used below:
B1: Ankyrin repeat and SAM domain-containing protein 6, residues 774 to 836; numbered along this chain, Q68DC2 (parent)
chain: DEDELTGILKKLSLEKYQPIFEEQEVDMEAFLTLTDGDLKELGIKTDGSRQQILAAISELNAG

Variants of B1 are the subject of the data set. Kind of data set: abundance fitness (aPCA) (normalised: wild type 0, dead -1); higher = more abundant; growth selection in yeast, the domain comes from the species named. Conditions: Homo sapiens.
Consider Q24M, for which the abundance fitness is -0.165 ± 0.1.

Consider Q24I, for which the abundance fitness is -0.47 ± 0.11.

Turning to Q24G, the abundance fitness is -0.128 ± 0.042.

As for Q24T, the abundance fitness was -0.257 ± 0.062.

As to Q24K, the abundance fitness is -0.042 ± 0.081.

Regarding N61L, the abundance fitness was -0.299 ± 0.042.

For the variant N61P, the abundance fitness was -0.461 ± 0.057.

Regarding N61S, the abundance fitness was -0.173 ± 0.042.

As for N61D, the abundance fitness is -0.297 ± 0.067.

With N61A, the abundance fitness is -0.148 ± 0.051.

Consider N61G, for which the abundance fitness was -0.186 ± 0.036.

As to N61Y, the abundance fitness was -0.345 ± 0.062.

Turning to N61K, the abundance fitness was determined as 0.071 ± 0.064.

For P19W, the abundance fitness is -0.208 ± 0.14.

In the case of P19G, the abundance fitness is -0.116 ± 0.055.

In the case of P19Y, the abundance fitness is -0.234 ± 0.054.

Turning to P19K, the abundance fitness is -0.416 ± 0.12.

In the case of P19D, the abundance fitness was -0.023 ± 0.083.

In the case of P19H, the abundance fitness is 0.005 ± 0.048.

Turning to P19F, the abundance fitness was -0.285 ± 0.051.

As to E4W, the abundance fitness was -0.582 ± 0.087.

For E4S, the abundance fitness is -0.148 ± 0.054.

In the case of E4F, the abundance fitness was -0.05 ± 0.16.

Turning to E4N, the abundance fitness was -0.838 ± 0.17.

For G48D, the abundance fitness was -0.016 ± 0.058.

In the case of G48F, the abundance fitness is -0.339 ± 0.082.

Take G48W: the abundance fitness was -0.424 ± 0.043.

Regarding G48K, the abundance fitness is -0.131 ± 0.088.

Regarding G48L, the abundance fitness is -0.042 ± 0.046.

With I20V, the abundance fitness is 0.101 ± 0.093.

For the variant I20T, the abundance fitness is -0.096 ± 0.068.

With I20E, the abundance fitness is -0.299 ± 0.12.

For I20H, the abundance fitness is -0.213 ± 0.16.

In the case of E22A, the abundance fitness is -0.107 ± 0.04.

Consider E22Y, for which the abundance fitness was -0.231 ± 0.075.

Regarding E22S, the abundance fitness is -0.059 ± 0.046.

Regarding E22W, the abundance fitness is -0.743 ± 0.068.

On to E22T, for which the abundance fitness was -0.093 ± 0.054.

Take L34V: the abundance fitness was -0.345 ± 0.065.

As to L34H, the abundance fitness was -0.356 ± 0.086.

Regarding L34W, the abundance fitness was -0.657 ± 0.039.

In the case of L34P, the abundance fitness was -0.561 ± 0.078.

For L34M, the abundance fitness turned out to be 0.038 ± 0.083.

V26H: the abundance fitness is -0.74 ± 0.097.

For the variant V26R, the abundance fitness is -0.588 ± 0.048.

Consider V26N, for which the abundance fitness is -0.664 ± 0.11.

Consider V26F, for which the abundance fitness was -0.177 ± 0.082.

With V26M, the abundance fitness is -0.024 ± 0.07.

Regarding V26G, the abundance fitness is -0.539 ± 0.041.

On to V26A, for which the abundance fitness was -0.542 ± 0.049.

As for V26I, the abundance fitness is -0.056 ± 0.066.

As for V26K, the abundance fitness was -0.425 ± 0.063.

Turning to T6V, the abundance fitness is -0.353 ± 0.22.

For D47I, the abundance fitness was -0.058 ± 0.087.

D47N: the abundance fitness is -0.126 ± 0.067.

Regarding D47M, the abundance fitness was -0.138 ± 0.071.

In the case of D47G, the abundance fitness was -0.158 ± 0.053.

Take D47K: the abundance fitness is -0.126 ± 0.085.

For the variant D47R, the abundance fitness is -0.149 ± 0.033.

As to D47S, the abundance fitness was -0.114 ± 0.044.

In the case of D47E, the abundance fitness came to 0.056 ± 0.054.

On to D47V, for which the abundance fitness is -0.049 ± 0.049.

Turning to D47T, the abundance fitness was -0.029 ± 0.054.

For the variant D47C, the abundance fitness was -0.128 ± 0.049.

Take L5S: the abundance fitness is -0.84 ± 0.1.

L5Y: the abundance fitness is -0.504 ± 0.12.

For L5I, the abundance fitness was -0.05 ± 0.16.

In the case of L5K, the abundance fitness was -0.895 ± 0.15.

L5A: the abundance fitness is -0.864 ± 0.068.

Take L5V: the abundance fitness is -0.18 ± 0.056.

Consider L5D, for which the abundance fitness is -1.01 ± 0.11.

As to Y17D, the abundance fitness was -0.322 ± 0.091.

Consider Y17A, for which the abundance fitness is -0.561 ± 0.064.

For Y17W, the abundance fitness was -0.043 ± 0.062.

As to Q18Y, the abundance fitness was -0.539 ± 0.2.

Consider Q18F, for which the abundance fitness was -0.407 ± 0.08.

Take Q18C: the abundance fitness was -0.146 ± 0.09.

Take Q18V: the abundance fitness was -0.12 ± 0.057.

Q18I: the abundance fitness is -0.051 ± 0.12.

As for D38I, the abundance fitness is -1.12 ± 0.11.

With D38N, the abundance fitness is -0.2 ± 0.081.

Consider D38L, for which the abundance fitness is -1.16 ± 0.076.

Regarding D38G, the abundance fitness was -0.273 ± 0.046.

Take L54S: the abundance fitness was -0.234 ± 0.048.

Regarding L54H, the abundance fitness is -0.439 ± 0.09.

On to L54E, for which the abundance fitness is -0.24 ± 0.065.

Turning to S13E, the abundance fitness was -0.002 ± 0.049.

Take S13I: the abundance fitness is -0.202 ± 0.21.

S13Q: the abundance fitness came to 0.042 ± 0.053.

Turning to E15Q, the abundance fitness was -0.037 ± 0.065.

With E15A, the abundance fitness was -0.271 ± 0.062.

Turning to E15I, the abundance fitness is -0.323 ± 0.084.

Regarding E15P, the abundance fitness was -0.687 ± 0.068.

E15K: the abundance fitness is -0.869 ± 0.35.

Take E15W: the abundance fitness was -0.657 ± 0.079.

For E15V, the abundance fitness was -0.36 ± 0.06.

As to E15R, the abundance fitness was -0.53 ± 0.043.

Regarding I8P, the abundance fitness is -1.03 ± 0.13.

For I8M, the abundance fitness amounted to 0.145 ± 0.078.

On to I8E, for which the abundance fitness is -0.206 ± 0.079.

Turning to I8N, the abundance fitness was -0.192 ± 0.1.

Consider D27W, for which the abundance fitness is -0.857 ± 0.11.

For the variant D27Q, the abundance fitness was -0.44 ± 0.073.

As to D27L, the abundance fitness is -0.895 ± 0.054.

D27R: the abundance fitness is -0.215 ± 0.044.

In the case of D27E, the abundance fitness was -0.294 ± 0.063.

With T35R, the abundance fitness was -0.057 ± 0.041.

Consider T35F, for which the abundance fitness is -0.779 ± 0.26.

Regarding T33G, the abundance fitness was -0.057 ± 0.041.

In the case of T33K, the abundance fitness came out at 0.141 ± 0.05.

With T33D, the abundance fitness was -0.122 ± 0.071.

Turning to L60F, the abundance fitness is -0.04 ± 0.062.

On to L60M, for which the abundance fitness is -0.054 ± 0.057.

Consider L60W, for which the abundance fitness was 0.031 ± 0.055.

For L60D, the abundance fitness was -0.359 ± 0.067.

For the variant D1I, the abundance fitness was determined as 0.158 ± 0.19.

As for D1L, the abundance fitness was found to be 0.223 ± 0.12.

With D1F, the abundance fitness is -0.312 ± 0.3.

In the case of G63K, the abundance fitness was -0.166 ± 0.14.

As for G63N, the abundance fitness was -0.266 ± 0.12.

G63D: the abundance fitness is -0.278 ± 0.11.

In the case of G63S, the abundance fitness is -0.069 ± 0.054.

On to G63A, for which the abundance fitness was -0.007 ± 0.062.

Consider G63T, for which the abundance fitness is -0.105 ± 0.068.

For the variant G63W, the abundance fitness was -0.464 ± 0.085.

For S58K, the abundance fitness stood at 0.157 ± 0.066.

As to S58A, the abundance fitness was found to be 0.045 ± 0.066.

Consider S58N, for which the abundance fitness is 0.118 ± 0.09.

For L39D, the abundance fitness is -0.499 ± 0.11.

In the case of L39K, the abundance fitness was -0.912 ± 0.13.

For the variant L39N, the abundance fitness was -0.514 ± 0.071.

For the variant L39C, the abundance fitness is -0.662 ± 0.088.

Consider L39Q, for which the abundance fitness was -0.605 ± 0.072.

Turning to L39F, the abundance fitness is -0.616 ± 0.075.

Regarding L39W, the abundance fitness was -1 ± 0.063.

In the case of L39R, the abundance fitness was -0.599 ± 0.048.

Regarding L9G, the abundance fitness was -0.917 ± 0.081.

Regarding L9S, the abundance fitness is -0.729 ± 0.081.

With L9H, the abundance fitness is -1.07 ± 0.18.

As for L9Q, the abundance fitness was -0.876 ± 0.16.

For L9M, the abundance fitness is -0.193 ± 0.058.

Regarding I44Q, the abundance fitness is -0.643 ± 0.086.

I44M: the abundance fitness was -0.253 ± 0.058.

Take I44Y: the abundance fitness was -0.766 ± 0.15.

Turning to I44C, the abundance fitness was -0.458 ± 0.061.

Take I44A: the abundance fitness is -0.574 ± 0.055.

I44R: the abundance fitness was -0.676 ± 0.057.

Consider E25M, for which the abundance fitness is -0.038 ± 0.084.

As to E25V, the abundance fitness is -0.21 ± 0.061.

For E25G, the abundance fitness is -0.023 ± 0.078.

Take E25S: the abundance fitness is -0.08 ± 0.041.

Consider E25K, for which the abundance fitness was found to be 0.301 ± 0.15.

As to A62C, the abundance fitness was -0.017 ± 0.14.

As for A62V, the abundance fitness was -0.117 ± 0.064.

As to A62S, the abundance fitness was -0.09 ± 0.051.

On to A62T, for which the abundance fitness is -0.161 ± 0.057.

With A62F, the abundance fitness is -0.345 ± 0.1.

On to A62Q, for which the abundance fitness was -0.121 ± 0.073.

Consider A62D, for which the abundance fitness was determined as 0.031 ± 0.071.

For the variant A62K, the abundance fitness is -0.25 ± 0.11.

In the case of F21R, the abundance fitness is -0.609 ± 0.049.

Regarding F21L, the abundance fitness was -0.222 ± 0.048.

Consider F21M, for which the abundance fitness is -0.372 ± 0.077.

Regarding F21K, the abundance fitness was -0.556 ± 0.082.

Turning to F21V, the abundance fitness is -0.595 ± 0.095.

Turning to F21W, the abundance fitness is -0.847 ± 0.096.

In the case of F21C, the abundance fitness was -0.697 ± 0.2.
